Laboratory results reported in patent publication US20170008959A1 (AbbVie / Abbott, published 2017).
No end group written: not given here.

B4: His-NogoR fusion protein (receptor, human, UniProt Q9BZR6 27-447, looked up)
chain: CPGACVCYNEPKVTTSCPQQGLQAVPVGIPAASQRIFLHGNRISHVPAASFRACRNLTILWLHSNVLARIDAAAFTGLALLEQLDLSDNAQLRSVDPATFHGLGRLHTLHLDRCGLQELGPGLFRGLAALQYLYLQDNALQALPDDTFRDLGNLTHLFLHGNRISSVPERAFRGLHSLDRLLLHQNRVAHVHPHAFRDLGRLMTLYLFANNLSALPTEALAPLRALQYLRLNDNPWVCDCRARPLWAWLQKFRGSSSEVPCSLPQRLAGRDLKRLAANDLQGCAVATGPYHPIWTGRATDEEPLGLPKCCQPDAADKASVLEPGRPASAGNALKGRVPPGDSPPGNGSGPRHINDSPFGTLPGSAEPPLTAVRPEGSEPPGFPTSGPRRRPGCSRKNRTRSHCRLGQAGSGGGGTGDSEGS
notes: Low-glycosylated fraction of about 80 kDa from CHO-K1 cells; also called soluble His-NogoR; NgR-HIS; not shown: Myc/His tag of vector pcDNA4/MycHIS A

How the values were obtained:
His-NogoR fusion protein = target: B4; assay: competition of AP-Nogo66 (0.1 nM) binding to coated His-NogoR
Experimental: (§1) This was followed by a blocking step for 1 hour with 2% strength bovine serum albumin (BSA) in Tris-HCl, pH 7.2, at room temperature. […] These stock solutions were then diluted three-fold.
(§2) After each incubation step, the plates were washed with washing buffer (10 mM Tris-HCl, pH 7.2 and 0.05% Tween20).

[1] = target: T1, Amyloid Aβ-1-42 oligomer (globulomer), biotinylated (UniProt P05067 672-713, biotinylated (1/5 biotin; position not stated)); assay: HTRF competition: peptide preincubated with Aβ 1/5 biotin globulomer 800 nM, then sRAGE 1-331 added; blocked partner sRAGE
T1 construct: domain: Aβ 1-42; Concentrations are based on Aβ 1-42 monomers; also called Aβ oligomer; Aβ 1-42 oligomers

[2] = target: T2, sRAGE-6×HIS (AA 23-352, NP_001127) (human, UniProt Q15109 23-331); assay: AlphaScreen, biotinylated peptide on streptavidin donor beads, sRAGE-6×HIS 2.5 ng/µl on anti-HIS acceptor beads
T2 construct: range 23-352; Printed as a fusion protein with limits 23-352 on NP_001127; also called human sRAGE-6×HIS; RAGE receptor; not shown: 6×HIS tag
Experimental: The assay was carried out by the manufacturer's protocol in 25 mM HEPES, 100 mM NaCl of pH 7.4 and 0.1% BSA in a volume of 20 μl.
(§3) The individual components were brought together in a defined time sequence. […] The various amounts of peptide were then added in order, after a further 30 minutes, to add the donor beads. After a further 60 minutes, the fluorescence was measured in the AlphaQuest instrument from Perkin-Elmer with a time lag of one second. Each measured point was determined as triplicate. The evaluation and graphical workup of the results took place with the GraphPrism 4.0 software package.

[3] = target: T1, Amyloid Aβ-1-42 oligomer (globulomer), …; assay: HTRF direct binding: Aβ 1/5 biotin globulomer titrated on His-tagged sRAGE; anti-6HIS cryptate and streptavidin XL-665
[4] = target: T2, sRAGE-6×HIS (AA 23-352, NP_001127); assay: AlphaScreen, biotinylated peptide and sRAGE-6×HIS
Experimental: The entire homogeneous assay was carried out in 25 mM HEPES, 100 mM NaCl of pH 7.4 and 0.1% BSA in a volume of 20 μl.
as §3, with “analysis” for “evaluation”

[5] = target: T3, AP-Nogo66 (Nogo-66 with an N-terminal alkaline phosphatase tag) (human, UniProt Q9NQC3 1055-1120); assay: competition of AP-Nogo66 (0.1 nM) binding to coated His-NogoR
T3 construct: range 1055-1120; Migrates as a dimer of about 140 kDa in gel chromatography; the AP tag induces the dimerization; also called NgR ligand AP-Nogo-66; not shown: alkaline phosphatase tag encoded by vector pAP-tag5
T3 sequence (looked up): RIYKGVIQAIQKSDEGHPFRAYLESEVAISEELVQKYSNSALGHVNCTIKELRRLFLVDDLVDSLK
Experimental: as §1, §2

QNITARIGEPLVLKCKGAPKKPPQRLEWKLN (also: biotin label in some assays, position not given here, also called Nterm 31; Nterm31) [NtermR31]
IC50 (His-NogoR fusion protein): 50 nM

TLQSELMVTPARGGDPRPTFSCSFSPGLPR (Synthetic 30mer) [AGER-CDP peptide 6]
binding result [1]: binds

B1: AlterCharge1 (peptide)
peptide: FSRIRATHWRVDG
modifications: also: biotinylated, position not given here
notes: Control 13mer with four positive charges
EC50 (read off the curve) [2]: ~50 nM

B2: N-terminally truncated sRAGE (sRAGE 102-331) (receptor)
chain: MNRNGKETKSNYRVRVYQIPGKPEIVDSASELTAGVPNKVGTCVSEGSYPAGTLSWHLDGKPLVPNEKGVSVKEQTRRHPETGLFTLQSELMVTPARGGDPRPTFSCSFSPGLPRHRALRTAPIQPRVWEPVPLEEVQLVVEPEGGAVAPGGTVTLTCEVPAQPSPQIHWMKDGVPLPLPPSPVLILPEIGPQDQGTYSCVATHSSHGPQESRAVSISIIEPGEEGPTAGARGGPEQKLISEEDLNSAVDHHHHHH
notes: His-tagged, expressed from psecTAG 2A; no longer has a functional V domain
binding result [3]: binds

CKGAPKKPPQRLE (also: biotinylated, position not given here (AlphaScreen assays only), also called Nterm 13) [NtermR13]
EC50 [4]: 66 nM

B3: sRAGE 1-331 (recombinant human sRAGE protein) (receptor)
chain: AQNITARIGEPLVLKCKGAPKKPPQRLEWKLNTGRTEAWKVLSPQGGGPWDSVARVLPNGSLFLPAVGIQDEGIFRCQAMNRNGKETKSNYRVRVYQIPGKPEIVDSASELTAGVPNKVGTCVSEGSYPAGTLSWHLDGKPLVPNEKGVSVKEQTRRHPETGLFTLQSELMVTPARGGDPRPTFSCSFSPGLPRHRALRTAPIQPRVWEPVPLEEVQLVVEPEGGAVAPGGTVTLTCEVPAQPSPQIHWMKDGVPLPLPPSPVLILPEIGPQDQGTYSCVATHSSHGPQESRAVSISIIEPGEEGPTAGGTKLGPEQKLISEEDLNSAVDHHHHHH
notes: His-tagged, from HEK 293 line 293/6.1 sRAGE His 6 (vector pcDNA3.1(-) Myc HIS); also called sRAGE-HIS
binding result [3]: binds

B4
IC50 [5]: 2 nM

LPRHRALRTAPIQPRVWEPVPLEEVQLVVE (Synthetic 30mer) [AGER-CDP peptide 7]
IC50 (read off the curve) [1]: ~4000 nM
